From article PMC5053586 (Cell Cycle, 2016)
Blank lines part the entries; values can stand above or below the compound they belong to.

Tests used:
[1] = target: T1, TbERK8 (extracellular-signal regulated kinase 8 homolog, Tb927.10.5140) (Trypanosoma brucei, UniProt Q38B88); experiment: HTRF kinase assay; assay type: biochemical
T1 sequence (Q38B88 1-442): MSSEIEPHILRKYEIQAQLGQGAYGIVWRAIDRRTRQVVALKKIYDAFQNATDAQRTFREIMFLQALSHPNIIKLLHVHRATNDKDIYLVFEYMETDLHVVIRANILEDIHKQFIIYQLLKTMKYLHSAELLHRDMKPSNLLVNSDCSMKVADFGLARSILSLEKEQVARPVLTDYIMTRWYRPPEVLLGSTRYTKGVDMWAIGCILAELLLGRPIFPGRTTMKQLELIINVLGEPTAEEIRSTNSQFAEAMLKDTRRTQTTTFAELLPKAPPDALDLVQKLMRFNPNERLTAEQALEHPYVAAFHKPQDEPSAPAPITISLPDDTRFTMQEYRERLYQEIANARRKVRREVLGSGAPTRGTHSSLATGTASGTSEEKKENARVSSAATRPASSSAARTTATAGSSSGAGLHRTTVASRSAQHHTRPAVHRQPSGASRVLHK

[2] = target: T1, TbERK8 (extracellular-signal regulated kinase 8 homolog, Tb927.10.5140); experiment: […]-ATP kinase assay with MBP substrate, eight-point dose response; assay type: biochemical
[3] = target: GST-TbERK8-PIP-box fusion protein (GSTtbE8-PIP) (Trypanosoma brucei); experiment: pull-down
[4] = target: GST-bound canonical PIP-box from T. brucei paraflagellar complex TbPFC19 (GSTtbPFC-PIP) (Trypanosoma brucei); experiment: pull-down
[5] = target: GST-bound canonical PIP-box from T. brucei aurora kinase 1 (GSTtbAUK1-PIP) (Trypanosoma brucei); experiment: pull-down

IC50 [1]: ~1.6 mM
Compound: COc1ccccc1C(=O)c1cnc(NC2CCN(C(=O)Nc3ccccc3)CC2)nc1N [SCYX5070]

IC50 [2]: 1400 nM
Compound: Cn1cc(C2=C(c3cn(CCCSC(=N)N)c4ccccc34)C(=O)NC2=O)c2ccccc21 [Ro318220]

Compound: hemagglutinin-tagged TbPCNA (wt-TbPCNAHA) (natural protein)
fold pulled down against GST-Ctrl beads [3]: 5 fold

Compound: recombinant wt-TbPCNA6H (natural protein)
fold pulled down against the TbERK8 PIP-box motif [4]: 3 fold | fold pulled down against the TbERK8 PIP-box motif [5]: 5 fold
